Assay results: patent US7998940B2, “Aptamers to von Willebrand factor and their use as thrombotic disease therapeutics” (Archemix Corp., priority 2004, dated 2011)
Like-named read-outs stand apart in the source and are kept apart here. Oligonucleotides are written 5' to 3', each unit as a sugar letter and its base; * is a phosphorothioate linkage, no mark a phosphodiester; rarer units and linkages stand in square brackets, end groups in braces. Plain capitals give the bases only. [invdT] = inverted (3'-3') thymidine; d = 2'-deoxy (DNA); m = 2'-O-methyl; r = 2'-OH (RNA); f = 2'-fluoro

Columns and labels:
[1] = test system: rabbit vWF domain A1 binding to lyophilized platelets; test: Rabbit von Willebrand Factor domain A1 platelet binding assay (FACS); type: cell-based
Sequence of rabbit vWF domain A1 binding to lyophilized platelets (as listed by the source): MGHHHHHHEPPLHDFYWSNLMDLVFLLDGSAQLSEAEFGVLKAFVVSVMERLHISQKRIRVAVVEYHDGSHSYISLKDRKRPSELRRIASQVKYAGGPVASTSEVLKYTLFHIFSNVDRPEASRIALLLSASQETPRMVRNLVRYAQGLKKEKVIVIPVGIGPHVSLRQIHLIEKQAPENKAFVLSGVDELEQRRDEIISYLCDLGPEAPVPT
Method in brief: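 Aptamers (0.1–1000 nM) preincubated with 4 nM His-tagged rabbit vWF A1 in PBS/0.5% BSA, then lyophilized human platelets plus botrocetin added, 15 min at 37 °C. Bound A1 detected by anti-His-biotin and PE secondary via flow cytometry (median fluorescence, background-subtracted); IC50 fitted from percent inhibition.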

[2] = test system: full length human vWF binding to lyophilized platelets; test: Full length human von Willebrand Factor platelet binding assay (FACS); type: cell-based; conditions: for Inhibition of full length hVWF binding in FACS assay, IC50 range: both bounds in nM
Method in brief: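 Aptamer titrations (0.1–1000 nM) pre-incubated with 5 nM full-length human vWF, then added to lyophilized platelets plus botrocetin for 15 min at 37 °C in PBS/0.5% BSA. Bound vWF detected by anti-vWF then FITC secondary antibody via flow cytometry MFI; % inhibition versus no-aptamer binding fitted for IC50.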

[3] = read-out: FACS IC50 vs rabbit A1 domain
[4] = read-out: FACS IC50 vs human full length vWF
[5] = 4 nM rabbit A1 vWF, lyophilized platelets, botrocetin, both bounds in nM, read-out: Inhibition of rabbit VWF A1 domain binding in FACS assay, IC50 range
[6] = 5 nM full length human vWF, lyophilized platelets, botrocetin, read-out: Inhibition of full length hVWF binding in FACS assay, Average IC50
[7] = 5 nM full length human vWF, lyophilized platelets, botrocetin, units in the cell: lower bound pM, upper bound nM, read-out: Inhibition of full length hVWF binding in FACS assay, IC50 range
[8] = 4 nM rabbit A1 vWF, lyophilized platelets, botrocetin, both bounds in nM
[9] = 5 nM full length human vWF, lyophilized platelets, botrocetin
[10] = 4 nM rabbit A1 vWF, lyophilized platelets, botrocetin, read-out: Inhibition of rabbit VWF A1 domain binding in FACS assay, Average IC50

**Q.** With “dGdGdCdGTdGdCdAdGTdGdCdCTTdCdGdGdCdCdGTdGdCdGdGTdGdCdCTdCdCdGTdCdAdCdGdCdC-3T (DNA GGCGTGCAGTGCCTTCGGCCGTGCGGTGCCTCCGTCACGCC; DNA, [invdT] at 3' end, backbone and methylation of C not given here) [ARC1172, ARC1115 with 3'-inverted dT]” as the molecule, how does the IC50 [1, 3] read?
**A.** Its IC50 is 2 nM.

**Q.** And the IC50 [2, 4]?
**A.** The IC50 was 2000 pM.

**Q.** With “mGmCmGmUdGdCdAmGmUmGmCmCmUmUmCmGmGmCdCmG-s-TmGdCdGdGTmGmCdCmUdCdCmGmUdCmAmCmGmC-3T (GCGUGCAGUGCCUUCGGCCGTGCGGTGCCUCCGUCACGC; sugars from the 5' end mmmmdddmmmmmmmmmmmdmdmddddmmdmddmmdmmmm, [invdT] at 3' end, backbone not given here) [ARC1368]” as the molecule, how does the IC50 [1, 3] read?
**A.** Its IC50 is 4 nM.

**Q.** And the IC50 [2, 4]?
**A.** The IC50 was 2000 pM.

B1: AMX237.A2: DNA SELEX 2 aptamer clone (nucleic acid)
chain: CTACCTACGATCTGACTAGCTCCAGTGTTTCATCCAATAACCGTGCGGTGCCTCCGTGAGCTTACTCTCATGTAGTTCC
modifications: DNA, backbone and methylation of C not given here
notes: DNA SELEX 2 aptamer clone
**Q.** What does the source list for B1?
**A.** IC50 [1, 5]: 7 nM; IC50 [2, 6]: 3500 pM; IC50 [2, 7]: 815 to 7300 pM

B2: AMX238.D12: DNA SELEX 2 aptamer clone (nucleic acid)
DNA: CTACCTACGATCTGACTAGCTCCAGTGTTTCATTCAATAACCGTGCGGTGCCTCCGTGAGCTTACTCTCATGTAGTTCC
modifications: DNA, backbone and methylation of C not given here
notes: DNA SELEX 2 aptamer clone
**Q.** Which results are given for B2?
**A.** IC50 [1, 5]: 7.2 nM; IC50 [2, 6]: 2000 pM; IC50 [2, 7]: 684 to 3400 pM

B3: AMX237.A11: DNA SELEX 2 aptamer clone (nucleic acid)
chain: CTACCTACGATCTGACTAGCTCCAGTGTTTTATCCAATAACCGTGCGGTGCCTCCGTGAGCTTACTCTCATGTAGTTCC
modifications: DNA, backbone and methylation of C not given here
notes: DNA SELEX 2 aptamer clone
**Q.** B3 was tested. Which IC50 [1, 5] did it give?
**A.** Its IC50 is 4.7 nM.

**Q.** And the IC50 [2, 6]?
**A.** Its IC50 is 2200 pM.

**Q.** And the IC50 [2, 7]?
**A.** Its IC50 is 466 to 5600 pM.

B4: AMX237.B11: DNA SELEX 2 aptamer clone (nucleic acid)
DNA: CTACCTACGATCTGACTAGCTCCAGTGTTTTATCTAATAACCGTGCGGTGCCTCCGTGAGCTTACTCTCATGTAGTTCC
modifications: DNA, backbone and methylation of C not given here
notes: DNA SELEX 2 aptamer clone
**Q.** For B4, which IC50 [1, 5] is on record?
**A.** Its IC50 is 5.7 nM.

**Q.** What about the IC50 [2, 6] of the same molecule?
**A.** The IC50 was 2500 pM.

**Q.** And the IC50 [2, 7]?
**A.** The IC50 was 151 to 4800 pM.

B5: AMX238.G5: DNA SELEX 2 aptamer clone (nucleic acid)
DNA: CTACCTACGATCTGACTAGCTCCAGTGTTTTATTCAATAACCGTGCGGTGCCTCCGTGAGCTTACTCTCATGTAGTTCC
modifications: DNA, backbone and methylation of C not given here
notes: DNA SELEX 2 aptamer clone
**Q.** Which IC50 [1, 5] does the source give for B5 here?
**A.** Its IC50 is 5.5 nM.

**Q.** What about the IC50 [2, 6] of the same molecule?
**A.** The IC50 was 1100 pM.

**Q.** What about the IC50 [2, 7] of the same molecule?
**A.** Its IC50 is 273 to 2600 pM.

B6: AMX206.D8: rRdY aptamer clone (nucleic acid)
chain: rGrGrArGdCrGdCrAdCdTdCrArGdCdCrAdCrGrAdCrGrGdTrGrAdTrGrGrAdTdTrArGdCrGdCrGrGdTrGrGrAdTdCdTdTrArAdCrGdTrGdCrGrArGdTdTdTdCrGrAdCdCdTdCdTdCdTrGdCdTrArGdC
**Q.** What does the source list for B6?
**A.** Inhibition of rabbit VWF A1 domain binding in FACS assay, IC50 range [1, 8]: no activity; Inhibition of full length hVWF binding in FACS assay, IC50 range [2, 9]: no activity

B7: AMX203.G9: rRdY aptamer clone (nucleic acid)
chain: rGrGrArGdCrGdCrAdCdTdCrArGdCdCrAdCrGrGrGrGdTrGrGrGdTrArGrAdCrGrGdCrGrGrGdTrAdTrGdTrGrGdCdTrGrGdTrGdTdCrGrArArGrGrGdTdTdTdCrGrAdCdCdTdCdTdCdTrGdCdTrArGdC
**Q.** B7 was tested. Which IC50 [1, 10] did it give?
**A.** The IC50 was 0.592 nM.

**Q.** And the IC50 ([1]; 4 nM rabbit A1 vWF, lyophilized platelets, botrocetin, units in the cell: lower bound pM, upper bound nM, read-out: Inhibition of rabbit VWF A1 domain binding in FACS assay, IC50 range)?
**A.** The IC50 was 0.152 to 1.6 nM.

**Q.** And the IC50 [2, 6]?
**A.** Its IC50 is 4700 pM.

B8: AMX205.F7: rRdY aptamer clone (nucleic acid)
chain: rGrGrArGdCrGdCrAdCdTdCrArGdCdCrAdCrAdCrGrAdCrAdTdTrGrGdCrGrGrGdTdTrGdTrArAdTdTrAdCdCrAdCrGdCrAdTrGrGdCdTrGdTdTdTrGdTdTdTdCrGrAdCdCdTdCdTdCdTrGdCdTrArGdC
**Q.** Which results are given for B8?
**A.** IC50 [1, 10]: 4.7 nM; IC50 [2, 6]: 818 pM; IC50 [2, 7]: 321 to 1600 pM

B9: AMX237.G6: DNA SELEX 2 aptamer clone (nucleic acid)
DNA: CTACCTACGATCTGACTAGCGTGCAGTGCCTATTCCAGGCCGTGCGGTGCCTCCGTCACGCTTACTCTCATGTAGTTCC
modifications: DNA, backbone and methylation of C not given here
notes: DNA SELEX 2 aptamer clone
**Q.** How did the IC50 [2, 6] turn out when B9 was run?
**A.** The IC50 was 1900 pM.

B10: AMX201.C8: rRfY aptamer clone (nucleic acid)
chain: rGrGrArGfCrGfCrAfCfUfCrArGfCfCrAfCfCfCfUfCrGfCrArArGfCrAfUfUfUfUrArArGrArAfUrGrAfCfUfUrGfUrGfCfCrGfCfUrGrGfCfUrGfUfUfUfUfCrGrAfCfCfUfCfUfCfUrGfCfUrArGfC
**Q.** Which results are given for B10?
**A.** IC50 [1, 10]: 0.682 nM; IC50 [2, 6]: 528 pM; IC50 [2, 7]: 24 to 1800 pM

B11: AMX205.H10: rRdY aptamer clone (nucleic acid)
chain: rGrGrArGdCrGdCrAdCdTdCrArGdCdCrAdCdTrGdTdTrGdCdCrGrAdCrGrGdTrGrAdTrGdTrAdTdTrArAdCrGdCrGrGrGdCrArAdCrGdTdTrGrGdTrGdTdTdTdCrGrAdCdCdTdCdTdCdTrGdCdTrArGdC
**Q.** Which “Inhibition of rabbit VWF A1 domain binding in FACS assay, IC50 range” value [1, 8] does the source give for B11 here?
**A.** Its value is “no activity”.

**Q.** And the “Inhibition of full length hVWF binding in FACS assay, IC50 range” value [2, 9]?
**A.** Its value is “no activity”.
